The chains are these.
B1: EsaDc H528A (EsaD residues 450-614, crystallised with EsaG) (domain or fragment)
chain: SPNYTKVEFGEHYARLRPKKLKANIEYTTPTGHIYRTDHKGRIKEVYVDNLSLKDGDRNSHAQRTVGGEDRLPDDDGGALIARMFGGSKDIDNLVAQSKFINRPFKEKGHWYNLEKEWQEFLNSGKEVKNIKMEVKYSGNSQRPTIFKVEYEINGERNIRRILNK
notes: source: E. coli BL21(DE3), purified (nickel column, ion exchange, Superdex 200); not shown: His6-SUMO, N-terminal, cleaved
B2: His-EsaDc-NFL (His-SUMO-tagged EsaD residues 450-503) (domain or fragment)
chain: SPNYTKVEFGEHYARLRPKKLKANIEYTTPTGHIYRTDHKGRIKEVYVDNLSLK
notes: also called His-tagged NFL; source: E. coli, purified; not shown: His-SUMO, N-terminal, kept
B3: NFL (EsaD residues 450-503) (domain or fragment)
chain: B2 chain
notes: 15N-labelled in one of the HSQC samples; The methods call the fragment NTL; also called EsaDc-NFL; NTL; source: E. coli BL21(DE3), purified (nickel column, ion exchange, Superdex 200); not shown: His6-SUMO, N-terminal, cleaved
B4: EsaG (natural protein)
chain: MTFEEKLSKIYNEIANEISSMIPVEWEKVYTMAYIDDGGGEVFFNYTKPGSDDLNYYTNIPKEYNISVQVFDDLWMDLYDLFEELRDLFKEEDLEPWTSCEFDFTREGELKVSFDYIDWINSEFGQIGRQNYYKYRKFGILPETEYEINKVKEIEQYIKELEE
notes: also called antitoxin EsaG; full-length EsaG; source: E. coli BL21(DE3), purified (nickel column, ion exchange, Superdex 200); not shown: His6-SUMO, N-terminal, cleaved

The target in data set [1] is Avi-tagged EsaG, biotinylated (S. aureus) (UniProt Q2G178). Nature of the data set: BLI; biotinylated Avi-tagged EsaG immobilised on streptavidin biosensors, EsaDc in solution at different concentrations; 300 mM NaCl, 30 mM NaH2PO4, 27 mM KCl, pH 7.2. In general terms: In BLI a coated tip is dipped into the sample, and binding shifts an interference pattern.
Data set [2] concerns the molecule itself. Nature of the data set: crystal structure; EsaDc-EsaG complex, 2.60 Å; hanging drop, 0.1 M Tris pH 8.5, 12% PEG6000, 0.15 M NaCl, 10% ethylene glycol, 0.5% Tacsimate pH 7.0, 1.0% PEG5000MME.
The target of data set [3] is B4. Nature of the data set: pull-down; His-SUMO-tagged protein on Ni-NTA beads with untagged protein (0.16 mM : 0.2 mM); 25 mM Tris-HCl pH 8.0, 1 M NaCl, 24 °C, 30 min; Coomassie-stained SDS-PAGE. The conditions noted are these: both partners purified.
Data set [4] has as its target B4. As to the kind of experiment: SEC; gel filtration of purified proteins and their mixtures; column and buffer not told for these runs. The conditions noted are these: both partners purified. In general terms: In gel filtration, larger molecules generally elute earlier.
For data set [5], the target named is B1. As to the kind of experiment: crystal structure; EsaDc-EsaG complex, 2.60 Å; hanging drop, 0.1 M Tris pH 8.5, 12% PEG6000, 0.15 M NaCl, 10% ethylene glycol, 0.5% Tacsimate pH 7.0, 1.0% PEG5000MME. As to conditions: both partners purified.

By Kd is commonly meant the free concentration of one partner at which half of the binding sites on the other are occupied at equilibrium, for simple one-to-one binding. A low value points to tighter binding.

In the case of “EsaDc N562F (from UniProt Q2G179 450-614) (domain or fragment)”, the Kd in data set [1] amounted to 860 nM.

The molecule “EsaDc Y484A (from UniProt Q2G179 450-614) (domain or fragment)” registered a Kd in data set [1] of 1670 nM. Same read-out and setting: to “EsaDc (EsaD residues 450-614, as used in the solution assays) (from UniProt Q2G179 450-614) (domain or fragment)” belongs 460 nM. As for B1, the binding result in data set [2] is given as “binds”. As for B2, the binding result with EsaG [3] is reported as “binds”. For B3, the binding result with EsaG [4] is recorded as “binds”. As to B4, in data set [5], the binding result is “binds”.

The values are drawn from paper PMC9616950, “A toxin-deformation dependent inhibition mechanism in the T7SS toxin-antitoxin system of Gram-positive bacteria” (Nature Communications, 2022).
